Assay results reported in publication PMC4255369 (2014).

Key:
Assay in all cases: SPR
[1] = biological target: human tau protein isoform 2N3R (human, UniProt P10636-5 1-410)
[2] = biological target: mis-disordered tau protein 151-391/4R (human, UniProt P10636-8 151-391)
[3] = biological target: human tau protein isoform 2N4R (human, UniProt P10636-8 1-441)
[4] = biological target: mis-disordered tau 151-391/3R (human, UniProt P10636-5 151-391)
mis-disordered tau 151-391/3R, sequence (P10636 other isoform, or with tags, fused parts or gaps): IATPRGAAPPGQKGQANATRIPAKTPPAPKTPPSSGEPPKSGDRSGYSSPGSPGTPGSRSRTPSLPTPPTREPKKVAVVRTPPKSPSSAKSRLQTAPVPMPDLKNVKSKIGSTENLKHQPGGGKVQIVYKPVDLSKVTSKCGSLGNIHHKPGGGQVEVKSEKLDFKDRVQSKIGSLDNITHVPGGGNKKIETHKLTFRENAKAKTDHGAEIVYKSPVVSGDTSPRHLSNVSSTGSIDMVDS

human tau protein isoform 2N4R, sequence (P10636 other isoform, or with tags, fused parts or gaps): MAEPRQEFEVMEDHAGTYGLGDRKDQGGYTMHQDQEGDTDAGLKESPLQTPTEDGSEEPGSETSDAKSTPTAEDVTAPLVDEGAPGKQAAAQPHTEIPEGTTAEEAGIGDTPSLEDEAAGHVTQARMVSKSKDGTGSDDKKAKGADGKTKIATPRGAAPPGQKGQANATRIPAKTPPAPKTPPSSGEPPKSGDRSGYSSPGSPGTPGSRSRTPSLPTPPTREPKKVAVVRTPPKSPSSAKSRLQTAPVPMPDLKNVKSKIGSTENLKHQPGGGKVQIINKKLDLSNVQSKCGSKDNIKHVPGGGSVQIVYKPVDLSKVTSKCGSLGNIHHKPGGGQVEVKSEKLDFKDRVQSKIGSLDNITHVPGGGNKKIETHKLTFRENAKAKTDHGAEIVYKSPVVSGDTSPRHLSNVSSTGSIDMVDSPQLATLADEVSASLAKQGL
human tau protein isoform 2N3R, sequence (P10636 other isoform, or with tags, fused parts or gaps): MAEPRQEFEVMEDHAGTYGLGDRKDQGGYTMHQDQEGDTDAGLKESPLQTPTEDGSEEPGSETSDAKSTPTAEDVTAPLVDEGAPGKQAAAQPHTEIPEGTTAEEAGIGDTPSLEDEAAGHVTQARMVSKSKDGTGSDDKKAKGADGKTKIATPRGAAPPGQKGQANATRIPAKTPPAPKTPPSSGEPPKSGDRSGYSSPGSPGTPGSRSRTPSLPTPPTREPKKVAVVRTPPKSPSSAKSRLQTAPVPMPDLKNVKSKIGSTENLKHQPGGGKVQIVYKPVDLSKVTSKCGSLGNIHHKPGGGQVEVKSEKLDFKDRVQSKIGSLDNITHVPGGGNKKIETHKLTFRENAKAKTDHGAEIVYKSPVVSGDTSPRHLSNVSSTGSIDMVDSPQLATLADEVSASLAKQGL
mis-disordered tau protein 151-391/4R, sequence (P10636 468-708): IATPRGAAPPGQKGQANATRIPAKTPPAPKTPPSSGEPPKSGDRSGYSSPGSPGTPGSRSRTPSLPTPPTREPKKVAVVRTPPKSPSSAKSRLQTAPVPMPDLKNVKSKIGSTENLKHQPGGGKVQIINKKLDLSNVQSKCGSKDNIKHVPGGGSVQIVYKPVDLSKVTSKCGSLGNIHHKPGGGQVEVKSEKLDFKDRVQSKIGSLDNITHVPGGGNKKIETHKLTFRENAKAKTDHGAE

- Ka [1]: 80000 M⁻¹
- Ka [2]: 7.3e+07 M⁻¹
- Ka [3]: 1.1e+07 M⁻¹
- Ka [4]: 1.9e+06 M⁻¹
B1: monoclonal antibody DC8E8 (antibody, V domains shown)
VH: QVQLQQSGPELVKPGTSVKMPCKASGYIFTDYVISWVKQRTGQGLEWIGEIFPRSGSTYYNEKFKGKATLTADKSSNTAYMQLSSVTSEDSAVYFCARDYYGTSFAMDYWGQGTSVTVSS
VL: DIVMSQSPSSLAVSAGEKVTMSCKSSQSLLNSRTRKNYLAWYQQKPGQSPKLLIYWASTRESGVPDRFTGSGSGTDFTLTISSVQAEDLAVYYCKQSFYLRTFGGGTKLDIK
